Results as given in article PMC9060813, “Protein with negative surface charge distribution, Bnr1, shows characteristics of a DNA‐mimic protein and may be involved in the adaptation of Burkholderia cenocepacia” (MicrobiologyOpen, 2022).

Target: the molecule itself
Assay: SEC-MALS; 800 micrograms of purified rBCAS0292 on S75 16/60 in 50 mM Tris-HCl, 150 mM NaCl, 5% glycerol, pH 7.5; DAWN MALS and Optilab rEX; reducing and oxidizing conditions

B1: recombinant BCAS0292 (Burkholderia negatively surface-charged regulatory protein 1), His-tagged (natural protein, Burkholderia cenocepacia, UniProt B4EQ58 1-179, looked up)
chain: MSGVRCDGLAIVDAVTLLSAYPDASRDADAPTVIDGRHIYVLRPGDAGQVGHNDNRLFAGLSPGDQLHLRETALALRAEVTVLFIRFALKDAGIVAPIEAEIRDAATPVPDGDDLLHPSCRPMKDHFWRSEVLAPGITTCTADFAVLDRDGAVSGYFRWETAIEIAGSRPDTKQPGVEP
notes: BCAS0292 protein (Bnr1), PixA family, Burkholderia cenocepacia; calculated molecular weight 19.2 kDa; no cleavage of the tag is told; also called rBCAS0292; rBnr1; source: E. coli BL21 Star (DE3), purified (lysis in 6 M guanidine-HCl, HisPur Ni-NTA, SEC)
  stoichiometry N: 2
